Source: patent EP1032654B1, “THERMOSTABLE GLUCOAMYLASE” (Novozymes A/S, priority 1997, dated 1999)

B1: Aspergillus niger AMG (glucoamylase G1), SEQ ID NO: 9 (Aspergillus niger) (protein)
chain: ATLDSWLSNEATVARTAILNNIGADGAWVSGADSGIVVASPSTDNPDYFYTWTRDSGLVLKTLVDLFRNGDTSLLSTIENYISAQAIVQGISNPSGDLSSGAGLGEPKFNVDETAYTGSWGRPQRDGPALRATAMIGFGQWLLDNGYTSTATDIVWPLVRNDLSYVAQYWNQTGYDLWEEVNGSSFFTIAVQHRALVEGSAFATAVGSSCSWCDSQAPEILCYLQSFWTGSFILANFDSSRSGKDANTLLGSIHTFDPEAACDDSTFQPCSPRALANHKEVVDSFRSIYTLNDGLSDSEAVAVGRYPEDTYYNGNPWFLCTLAAAEQLYDALYQWDKQGSLEVTDVSLDFFKALYSDAATGTYSSSSSTYSSIVDAVKTFADGFVSIVETHAASNGSMSEQYDKSDGEQLSARDLTWSYAALLTANNRRNSVVPASWGETSASSVPGTCAATSAIGTYSSVTVTSWPSIVATGGTTTTATPTGSGSVTSTSKTTATASKTSTSTSSTSCTTPTAVAVTFDLTATTTYGENIYLVGSISQLGDWETSDGIALSADKYTSSDPLWYVTVTLPAGESFEYKFIRIESDDSVEWESDPNREYTVPQACGTSTATVTDTWR
B2: recombinant Talaromyces emersonii AMG (glucoamylase) expressed in A. niger, SEQ ID NO: 7 (Rasamsonia emersonii) (protein)
chain: ATGSLDSFLATETPIALQGVLNNIGPNGADVAGASAGIVVASPSRSDPNYFYSWTRDAALTAKYLVDAFIAGNKDLEQTIQQYISAQAKVQTISNPSGDLSTGGLGEPKFNVNETAFTGPWGRPQRDGPALRATALIAYANYLIDNGEASTADEIIWPIVQNDLSYITQYWNSSTFDLWEEVEGSSFFTTAVQHRALVEGNALATRLNHTCSNCVSQAPQVLCFLQSYWTGSYVLANFGGSGRSGKDVNSILGSIHTFDPAGGCDDSTFQPCSARALANHKVVTDSFRSIYAINSGIAEGSAVAVGRYPEDVYQGGNPWYLATAAAAEQLYDAIYQWKKIGSISITDVSLPFFQDIYPSAAVGTYNSGSTTFNDIISAVQTYGDGYLSIVEKYTPSDGSLTEQFSRTDGTPLSASALTWSYASLLTASARRQSVVPASWGESSASSVPAVCSATSATGPYSTATNTVWPSSGSGSSTTTSSAPCTTPTSVAVTFDEIVSTSYGETIYLAGSIPELGNWSTASAIPLRADAYTNSNPLWYVTVNLPPGTSFEYKFFKNQTDGTIVWEDDPNRSYTVPAYCGQTTAILDDSWQ

Assays:
Experiment in all cases: Kinetic parameters for hydrolysis of maltose and isomaltose
Settings in all cases: other: At 45°C using 0.05 M NaOAc, pH 4.5
[1] = substrate: OC[C@H]1O[C@H](OC[C@H]2OC(O)[C@H](O)[C@@H](O)[C@@H]2O)[C@H](O)[C@@H](O)[C@@H]1O; type: biochemical, Aspergillus niger
Procedure: (§1) 50 microL enzyme diluted in sodium acetate is added,and the activity was determined using the AGU standard method described above. The kinetic parameters: Kcat and Km are measured at 45°C by adding 50 microL enzyme diluted in sodium acetate to preheated 750 microL substrate. Aliquots of 100 microL are removed after 0, 3, 6, 9 and 12 minutes and transferred to 100 microL 0.4M Sodium hydroxide to stop the reaction. A blank is included.
(§2) 20 microL is transferred to a Micro titre plates and 200 microL GOD-Perid solution is added. Absorbance is measured at 650 nm after 30 minutes incubation at room temperature. Glucose is used as standard, and the specific activity is calculated as kcat (sec. ^-1)
(§3) Kinetic Parameters for Hydrolysis of Maltose and Isomaltose by Aspergillus niger AMG and the recombinant Talaromyces emersonii AMG expressed in A. niger.

[2] = substrate: OC[C@H]1O[C@H](O[C@H]2[C@H](O)[C@@H](O)[C@H](O)O[C@@H]2CO)[C@H](O)[C@@H](O)[C@@H]1O; type: biochemical, Aspergillus niger
Procedure: as §1, §2, §3

[3] = substrate: OC[C@H]1O[C@H](OC[C@H]2OC(O)[C@H](O)[C@@H](O)[C@@H]2O)[C@H](O)[C@@H](O)[C@@H]1O; type: biochemical, Talaromyces emersonii
Procedure: as §1, §2, §3

[4] = substrate: OC[C@H]1O[C@H](O[C@H]2[C@H](O)[C@@H](O)[C@H](O)O[C@@H]2CO)[C@H](O)[C@@H](O)[C@@H]1O; type: biochemical, Talaromyces emersonii
Procedure: as §1, §2, §3

| Protein | Km [1] [mM] | kcat [1] [s⁻¹] | kcat/Km [1] [M⁻¹ s⁻¹] | Km [2] [mM] | kcat [2] [s⁻¹] | kcat/Km [2] [M⁻¹ s⁻¹] | Km [3] [mM] | kcat [3] [s⁻¹] | kcat/Km [3] [M⁻¹ s⁻¹] | Km [4] [mM] | kcat [4] [s⁻¹] | kcat/Km [4] [M⁻¹ s⁻¹] |
| --- | --- | --- | --- | --- | --- | --- | --- | --- | --- | --- | --- | --- |
| B1 | 19.8 | 0.41 | 21 | 1.2 | 10.7 | 8800 |  |  |  |  |  |  |
| B2 |  |  |  |  |  |  | 53.6 | 2.70 | 50 | 3.8 | 30.6 | 8100 |
